Patent US6830937 (Bristol-Myers Squibb, dated 2004)
Each block holds one molecule with its values, some of them ahead of it.

Tests used:
B7 antigen [1] = molecular target: B7 antigen (UniProt P33681); test: cell-based or functional assay
[2] = molecular target: B7Ig fusion protein (human) [IgG part: P01857]; test: competition of 125I-B7Ig binding to immobilized CD28Ig
B7 antigen [3] = molecular target: B7 antigen (UniProt P33681); test: flow cytometry, direct staining of Raji cells (BL), no unlabeled BB-1
B7 antigen [4] = molecular target: B7 antigen (UniProt P33681); test: flow cytometry, direct staining of Daudi cells (BL), no unlabeled BB-1
B7 antigen [5] = molecular target: B7 antigen (UniProt P33681); test: flow cytometry, direct staining of 5E1 cells (B-LCL), no unlabeled BB-1
B7 antigen [6] = molecular target: B7 antigen (UniProt P33681); test: flow cytometry, direct staining of Jijoye cells (BL), no unlabeled BB-1
B7 antigen [7] = molecular target: B7 antigen (UniProt P33681); test: flow cytometry, direct staining of T51 cells (B-LCL), no unlabeled BB-1
B7 antigen [8] = molecular target: B7 antigen (UniProt P33681); test: flow cytometry, direct staining of 5E1 cells after preincubation with unlabeled BB-1
B7 antigen [9] = molecular target: B7 antigen (UniProt P33681); test: flow cytometry, direct staining of T51 cells after preincubation with unlabeled BB-1
B7 antigen [10] = molecular target: B7 antigen (UniProt P33681); test: flow cytometry, direct staining of Raji cells after preincubation with unlabeled BB-1
B7 antigen [11] = molecular target: B7 antigen (UniProt P33681); test: flow cytometry, direct staining of Daudi cells after preincubation with unlabeled BB-1
B7 antigen [12] = molecular target: B7 antigen (UniProt P33681); test: flow cytometry, direct staining of Jijoye cells after preincubation with unlabeled BB-1
CD28 receptor [13] = molecular target: T1, CD28 receptor (human, UniProt P10747 19-220); test: cell-based or functional assay
CD28 receptor [14] = molecular target: T1, CD28 receptor; test: flow cytometry, direct staining of CD28+ CHO cells
CD28 receptor [15] = molecular target: T1, CD28 receptor; test: flow cytometry, direct staining of phytohemagglutinin-stimulated T cells

Molecule: monoclonal antibody (mAb) 9.3 (anti-CD28)
- [3H]-T incorporation by PBL, +Anti-CD3, Exp. 1, mAb 9.3 (immob.) (CD28 receptor [13]): 137000 cpm
- [3H]-T incorporation by PBL, +Anti-CD3, Exp. 1, mAb 9.3 (soln.) (CD28 receptor [13]): 156000 cpm
- [3H]-T incorporation by PBL, +Anti-CD3, Exp. 2, mAb 9.3 (soln.) (CD28 receptor [13]): 75800 cpm
- [3H]-T incorporation by PBL, -Anti-CD3, Exp. 1, mAb 9.3 (immob.) (CD28 receptor [13]): 100 cpm
- [3H]-T incorporation by PBL, -Anti-CD3, Exp. 1, mAb 9.3 (soln.) (CD28 receptor [13]): 300 cpm
- [3H]-T incorporation by PBL, -Anti-CD3, Exp. 2, mAb 9.3 (soln.) (CD28 receptor [13]): 400 cpm
- half-maximal inhibition of CD28-mediated adhesion (PM lymphoblastoid cells to CD28+ CHO cells) (CD28 receptor [13]): 10 nM
- inhibition of adhesion of B7 transfected COS cells to CD28+ CHO cells when EDTA was omitted (CD28 receptor [13]): 40%
- reduction of adhesion of T51 cells to CD28+ CHO cells by mAb 9.3 alone (no EDTA) (CD28 receptor [13]): 62%
- reduction of adhesion of T51 cells to CD28+ CHO cells by mAb 9.3 plus EDTA (CD28 receptor [13]): 93%
- mean channel fluorescence (linear fluorescence units) (CD28 receptor [14]): 116
- mean channel fluorescence (linear fluorescence units) (CD28 receptor [15]): 11.3

B1: B7 antigen (ligand, UniProt P33681 35-288, looked up)
chain: VIHVTKEVKEVATLSCGHNVSVEELAQTRIYWQKEKKMVLTMMSGDMNIWPEYKNRTIFDITNNLSIVILALRPSDEGTYECVVLKYEKDAFKREHLAEVTLSVKADFPTPSISDFEIPTSNIRRIICSTSGGFPEPHLSWLENGEELNAINTTVSQDPETELYAVSSKLDFNMTTNHSFMCLIKYGHLRVNQTFNWNTTKQEHFPDNLLPSWAITLISVNGIFVICCLTYCFAPRCRERRRNERLRRESVRPV
- adhesion of 51Cr-labeled T51 cells to CD28+ CHO cells relative to CD28- CHO cells, with EDTA (CD28 receptor [13]): 17 fold
- adhesion of 51Cr-labeled T51 cells to CD28+ CHO cells relative to CD28- CHO cells, without EDTA (CD28 receptor [13]): 5.5 fold

Continued, values first:

- [3H]-T incorporation by PHA blasts stimulated with B7+ CHO cells (40:1), BB-1 at 10 µg/ml (B7 antigen [1]): 98300 cpm
- inhibition of adhesion of Jijoye cells to CD28+ CHO cells (B7 antigen [1]): 60%
- IC50 [2]: 140 nM
- mean fluorescence, -COLD (B7 antigen [3]): 7.1 linear units
- mean fluorescence, -COLD (B7 antigen [4]): 6.4 linear units
- mean fluorescence, -COLD (B7 antigen [5]): 13 linear units
- mean fluorescence, -COLD (B7 antigen [6]): 17.8 linear units
- mean fluorescence, -COLD (B7 antigen [7]): 16.4 linear units
- mean fluorescence, +COLD (B7 antigen [8]): 2.4 linear units
- mean fluorescence, +COLD (B7 antigen [9]): 3 linear units
- mean fluorescence, +COLD (B7 antigen [10]): 2.8 linear units
- mean fluorescence, +COLD (B7 antigen [11]): 2.8 linear units
- mean fluorescence, +COLD (B7 antigen [12]): 2.8 linear units
Molecule: mAb BB-1 (anti-B7) (antibody)

- [3H]-T incorporation by PHA blasts stimulated with B7+ CHO cells (40:1), 9.3 Fab at 10 µg/ml (CD28 receptor [13]): 132000 cpm
Molecule: mAb 9.3 (Fab fragments)
